Data taken from patent US20200040101A1.
Several values for one entry are separate records, joined by “and”; a condition that tells them apart may be missing. Identical values can stand only once. Blank lines part the entries; values can stand above or below the binder they belong to.

Legend:
[1] = molecular target: CLDN18.1 expressed on HEK 293 cells (UniProt P56856); test: FACS, hybridoma supernatant on HEK 293 cells expressing CLDN 18.1
[2] = molecular target: purified CLDN18.2 protein (CLDN18.2 ligand) (human) (UniProt P56856); test: Octet (ForteBio), antibody on anti-human IgG capture sensor, CLDN18.2 ligand in solution, 1:1 fit; kdis(1/s)
[3] = molecular target: human Claudin 18.2 (CLDN18.2) expressed on cells (human) (UniProt P56856); test: FACS, transfected HEK 293 cells, first 18.2 column
[4] = molecular target: purified CLDN18.2 protein (CLDN18.2 ligand) (human) (UniProt P56856); test: Octet (ForteBio), antibody on anti-human IgG capture sensor, CLDN18.2 ligand in solution, 1:1 fit
[5] = molecular target: human Claudin 18.2 (CLDN18.2) expressed on cells (human) (UniProt P56856); test: FACS, transfected HEK 293 cells, second 18.2 column
[6] = molecular target: human Claudin 18.2 (CLDN18.2) expressed on cells (human) (UniProt P56856); test: cell-based or functional assay
Claudin-16 = molecular target: T1, Claudin-16; test: FACS, transfected HEK 293 cells
T1 sequence (Q9Y5I7 1-235, species assumed, looked up): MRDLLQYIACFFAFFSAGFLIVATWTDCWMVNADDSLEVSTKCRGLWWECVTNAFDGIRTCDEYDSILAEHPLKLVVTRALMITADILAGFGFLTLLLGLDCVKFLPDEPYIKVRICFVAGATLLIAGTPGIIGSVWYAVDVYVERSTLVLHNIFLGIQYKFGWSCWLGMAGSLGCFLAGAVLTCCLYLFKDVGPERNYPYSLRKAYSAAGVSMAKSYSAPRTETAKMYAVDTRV

Claudin-23 = molecular target: T2, Claudin-23; test: FACS, transfected HEK 293 cells
T2 sequence (Q96B33 1-292, species assumed, looked up): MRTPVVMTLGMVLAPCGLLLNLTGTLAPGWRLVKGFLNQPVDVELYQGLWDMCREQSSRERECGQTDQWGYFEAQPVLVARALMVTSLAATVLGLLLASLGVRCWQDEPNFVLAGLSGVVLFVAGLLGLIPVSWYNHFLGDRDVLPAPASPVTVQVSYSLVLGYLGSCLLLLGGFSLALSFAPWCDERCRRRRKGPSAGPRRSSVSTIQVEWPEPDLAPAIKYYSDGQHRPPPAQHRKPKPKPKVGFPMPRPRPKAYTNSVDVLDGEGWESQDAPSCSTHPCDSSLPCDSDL

Claudin-22 = test: FACS, transfected HEK 293 cells
Claudin-11 = molecular target: T3, Claudin-11; test: FACS, transfected HEK 293 cells
T3 sequence (O75508 whole entry, species assumed, looked up): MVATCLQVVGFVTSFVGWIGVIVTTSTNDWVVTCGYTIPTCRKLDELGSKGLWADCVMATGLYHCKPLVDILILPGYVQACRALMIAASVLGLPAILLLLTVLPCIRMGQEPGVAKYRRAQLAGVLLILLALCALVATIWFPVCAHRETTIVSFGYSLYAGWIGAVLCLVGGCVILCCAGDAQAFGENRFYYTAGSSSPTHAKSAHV

Claudin-1 = test: FACS, transfected HEK 293 cells
Claudin-14 = test: FACS, transfected HEK 293 cells
Claudin-9 = test: FACS, transfected HEK 293 cells
Claudin-4 = test: FACS, transfected HEK 293 cells
Claudin-8 = test: FACS, transfected HEK 293 cells
Claudin-17 = molecular target: T4, Claudin-17; test: FACS, transfected HEK 293 cells
T4 sequence (P56750 whole entry, species assumed, looked up): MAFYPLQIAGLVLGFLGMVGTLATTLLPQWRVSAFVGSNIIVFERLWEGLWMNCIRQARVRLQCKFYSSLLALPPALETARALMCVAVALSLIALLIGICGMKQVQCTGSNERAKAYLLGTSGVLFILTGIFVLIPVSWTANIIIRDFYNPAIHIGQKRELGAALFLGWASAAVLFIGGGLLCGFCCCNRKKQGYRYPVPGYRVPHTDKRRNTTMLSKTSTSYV

Claudin-5 = molecular target: T5, Claudin-5; test: FACS, transfected HEK 293 cells
T5 sequence (O00501 whole entry, species assumed, looked up): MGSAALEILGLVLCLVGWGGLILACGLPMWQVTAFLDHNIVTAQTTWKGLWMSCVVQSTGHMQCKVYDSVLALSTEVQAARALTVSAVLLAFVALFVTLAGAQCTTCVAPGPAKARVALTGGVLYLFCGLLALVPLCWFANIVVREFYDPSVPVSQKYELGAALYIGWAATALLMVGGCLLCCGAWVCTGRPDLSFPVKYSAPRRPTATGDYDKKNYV

Claudin-2 = molecular target: T6, Claudin-2; test: FACS, transfected HEK 293 cells
T6 sequence (P57739 whole entry, species assumed, looked up): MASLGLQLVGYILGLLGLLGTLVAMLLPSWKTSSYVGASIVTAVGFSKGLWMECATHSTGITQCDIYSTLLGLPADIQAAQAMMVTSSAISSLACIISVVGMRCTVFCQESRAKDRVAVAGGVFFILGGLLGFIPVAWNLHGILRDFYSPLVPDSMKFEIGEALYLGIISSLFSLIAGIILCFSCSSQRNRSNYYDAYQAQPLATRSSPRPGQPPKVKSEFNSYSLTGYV

Claudin-10 = molecular target: T7, Claudin-10; test: FACS, transfected HEK 293 cells
T7 sequence (P78369 1-228, species assumed, looked up): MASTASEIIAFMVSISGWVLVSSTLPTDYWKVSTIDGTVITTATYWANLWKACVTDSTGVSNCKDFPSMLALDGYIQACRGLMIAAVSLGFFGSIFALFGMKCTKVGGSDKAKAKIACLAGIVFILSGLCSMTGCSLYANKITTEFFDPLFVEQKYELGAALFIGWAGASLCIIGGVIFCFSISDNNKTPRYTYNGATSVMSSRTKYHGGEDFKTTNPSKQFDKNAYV

[7] = molecular target: T8, CLDN 7 expressed on HEK 293 cells (UniProt O95471); test: FACS, transfected HEK 293 cells
T8 sequence (looked up): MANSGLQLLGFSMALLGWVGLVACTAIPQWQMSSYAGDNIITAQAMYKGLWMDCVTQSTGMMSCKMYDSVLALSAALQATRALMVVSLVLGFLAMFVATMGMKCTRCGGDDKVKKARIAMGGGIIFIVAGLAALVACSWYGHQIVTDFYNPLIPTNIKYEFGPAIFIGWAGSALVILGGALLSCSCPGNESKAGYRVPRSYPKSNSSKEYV

Claudin-19 = molecular target: T9, Claudin-19; test: FACS, transfected HEK 293 cells
T9 sequence (Q8N6F1 whole entry, species assumed, looked up): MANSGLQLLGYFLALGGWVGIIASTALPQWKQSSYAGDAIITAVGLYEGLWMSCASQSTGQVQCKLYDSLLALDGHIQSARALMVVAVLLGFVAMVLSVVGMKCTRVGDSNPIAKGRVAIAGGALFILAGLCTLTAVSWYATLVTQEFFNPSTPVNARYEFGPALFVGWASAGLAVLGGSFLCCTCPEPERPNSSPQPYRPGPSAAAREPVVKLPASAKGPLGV

Claudin-12 = test: FACS, transfected HEK 293 cells
Claudin-34 = test: FACS, transfected HEK 293 cells
Claudin-3 = test: FACS, transfected HEK 293 cells
[8] = molecular target: human Claudin 18.2 (CLDN18.2) expressed on cells (human) (UniProt P56856); test: FACS, purified antibody on HEK 293 cells expressing CLDN18.2
[9] = molecular target: purified CLDN18.2 protein (CLDN18.2 ligand) (human) (UniProt P56856); test: BLI (ForteBio Octet RED 96), antibody on anti-human IgG capture sensor, CLDN18.2 ligand in solution, 1:1 fit
[10] = molecular target: human Claudin 18.2 (CLDN18.2) expressed on cells (human) (UniProt P56856); test: FACS, purified chimeric antibody on HEK 293 cells expressing CLDN18.2
[11] = molecular target: human Claudin 18.2 (CLDN18.2) expressed on cells (human) (UniProt P56856); test: FACS, transfected HEK293 cells, 10 ug/ml; HEK293 alone 14.2
mouse-18.1 (mouse) = mouse-18.1 (mouse) (UniProt P56857); test: as above
Sequence of mouse-18.1 (mouse) (P56857 whole entry): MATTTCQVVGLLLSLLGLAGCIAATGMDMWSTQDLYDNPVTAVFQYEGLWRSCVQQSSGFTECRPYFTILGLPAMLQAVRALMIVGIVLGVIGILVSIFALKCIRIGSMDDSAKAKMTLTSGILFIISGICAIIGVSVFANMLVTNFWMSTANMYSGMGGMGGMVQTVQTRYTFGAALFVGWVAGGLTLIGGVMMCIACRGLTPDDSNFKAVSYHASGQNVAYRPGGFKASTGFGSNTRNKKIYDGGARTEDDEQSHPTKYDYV

mouse-18.2 (mouse) = mouse-18.2 (mouse) (UniProt P56857); test: as above
Sequence of mouse-18.2 (mouse) (P56857 other isoform, or with tags, fused parts or gaps): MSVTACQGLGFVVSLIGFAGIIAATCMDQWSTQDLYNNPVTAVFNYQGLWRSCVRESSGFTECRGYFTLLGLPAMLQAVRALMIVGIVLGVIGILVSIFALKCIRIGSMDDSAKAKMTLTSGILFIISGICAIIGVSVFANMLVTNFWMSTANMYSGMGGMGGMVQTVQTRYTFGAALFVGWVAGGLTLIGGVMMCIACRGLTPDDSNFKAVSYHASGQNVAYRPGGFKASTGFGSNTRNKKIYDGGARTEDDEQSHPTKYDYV

[12] = molecular target: CLDN18.1 expressed on HEK 293 cells (UniProt P56856); test: as above

MFI [1]: 30
B1: 11E12 (mouse hybridoma subclone antibody) (antibody, V domains shown)
VH: QVQLQQSGAELARPGASVKLSCKASGYTFTSYVINWVKQKTGQGLEWIGEIHPRGGNTYYSEKFRGRATLTADKSSSTAYMEFRSLTSEDSAVYFCAILRRGNAMDYWDQGTAVTVSS
VL: DIVMTQSPSSLPVTAGEMVTMSCKSSQSLLNSGNQRNYLTWYQQKPGQPPKLLIYWASTRESGVPDRFTGSGSGTDFTLTISSVQAEDLAVYYCQNSYNYPYTFGGGTKLERK

koff [2]: 0.000139 s⁻¹
MFI [3]: 4040
Kd [4]: 86.9 nM
kon [4]: 1600 M⁻¹ s⁻¹
MFI [5]: 3880
ADCC NUGC4 Cells [6]: 610 ng/mL
ADCC with 293 cells expressing Claudin 18.2 [6]: 0.014 nM and 0.006 nM
MFI (Claudin-16): 19.5
MFI (Claudin-23): 19.8
MFI (Claudin-22): 19.9
MFI (Claudin-11): 19.3
MFI (Claudin-1): 20.9
MFI (Claudin-14): 21.2
MFI (Claudin-9): 20.4
MFI (Claudin-4): 18.7
MFI (Claudin-8): 20.4
MFI (Claudin-17): 19.6
MFI (Claudin-5): 18.4
MFI (Claudin-2): 19.7
MFI (Claudin-10): 20.8
MFI [7]: 21.4
MFI (Claudin-19): 18.1
MFI (Claudin-12): 21.4
MFI (Claudin-34): 21.1
MFI (Claudin-3): 20.8
EC50 [8]: 1.17 nM
FACS Signal MFI (×1000) [8]: 25000 MFI
Kd [9]: 89 nM and 71 nM
B2: Internal Reference (reference antibody with the heavy and light chain sequences of Zolbetuximab) (antibody, INN chains, looked up, V domains shown)
VH: QVQLQQPGAELVRPGASVKLSCKASGYTFTSYWINWVKQRPGQGLEWIGNIYPSDSYTNYNQKFKDKATLTVDKSSSTAYMQLSSPTSEDSAVYYCTRSWRGNSFDYWGQGTTLTVSS
VL: DIVMTQSPSSLTVTAGEKVTMSCKSSQSLLNSGNQKNYLTWYQQKPGQPPKLLIYWASTRESGVPDRFTGSGSGTDFTLTISSVQAEDLAVYYCQNDYSYPFTFGSGTKLEIKR

EC50 [10]: 0.619 nM
FACS Signal MFI (×1000) [10]: 55000 MFI
koff [2]: 2.9e-05 s⁻¹
Kd [4]: 12.5 nM
kon [4]: 2320 M⁻¹ s⁻¹
MFI [11]: 553
MFI (mouse-18.1 (mouse)): 18.9
MFI (mouse-18.2 (mouse)): 3490
MFI [12]: 19.4
ADCC NUGC4 Cells [6]: 70 ng/mL
ADCC with 293 cells expressing Claudin 18.2 [6]: 0.015 nM
Kd [9]: 12 nM
B3: Clone # 46 (purified chimeric rabbit/human antibody) (antibody, V domains shown)
VH: QQQLVESGGGLVKPGGTLTLTCTVSGFYFNRGYWICWVRQAPGKGLEWIGCIDTGSGVPYYANWAKGRFTISKTSSTAVTLQMTSLTAADTATYFCARNSDSIYFNLWGPGTLVTVSS
VL: DIVMTQTPASVSEPVGGTVTIKCQASQSIGGYLSWYQQKPGQPPKLLIYKASTLASGVPSRFKGSGSGTDFTLTISDLECADAATYYCQNYAGVSIYGAVFGGGTKVVVVR
